Data as given in patent US20250277026A1.

B1: NR.N6.PC1 (antibody, from another filing, V domains shown)
VH: EVQLQQSGPELVKPGASMKISCKASGYSFTGYTMNWVKQSHGKNLEWIGLINPYNGGTIYNQKFKGKATLTVDKSSSTAYMELLSLTSEDSAVYYCARDYGFVLDYWGQGTTLTVSS
VL: QIVLTQSPSIMSVSPGEKVTITCSASSSVSYMHWFQQKPGTSPKLCIYSTSNLASGVPARFSGRGSGTSYSLTISRVAAEDAATYYCQQRSNYPPWTFGGGTKLEIK
B2: NR.N6.PC2 (antibody, from another filing, V domains shown)
VH: QVQLVQSGAEVKKPGASVKVSCKASGYTFTSYWMNWVRQAPGQRLEWMGMIHPSDSEIRLNQKFKDRVTITRDTSASTAYMELSSLRSEDTAVYYCARIDSYYGYLFYFDYWGQGTTVTVSS
VL: DIVMTQSPDSLAVSLGERATINCRASQTVSTSSYSYMHWYQQKPGQPPKLLIYFASNVESGVPDRFSGSGSGTDFTLTISSLQAEDVAVYYCQHSWEIPWTFGQGTKLEIKR

Experiments:
human Claudin-6 (human) [1] = biological target: human Claudin-6 (human) (UniProt P56747); assay: FACS, Claudin-6-CHO-K1 cells
Sequence of human Claudin-6 (human) (P56747 whole entry): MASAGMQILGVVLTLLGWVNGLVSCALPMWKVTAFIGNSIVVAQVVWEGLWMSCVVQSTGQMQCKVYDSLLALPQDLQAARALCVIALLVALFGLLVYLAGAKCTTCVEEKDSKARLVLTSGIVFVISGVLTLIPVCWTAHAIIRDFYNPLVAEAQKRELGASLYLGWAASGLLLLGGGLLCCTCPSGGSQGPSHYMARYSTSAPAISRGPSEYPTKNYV

human Claudin-4 (human) [2] = biological target: human Claudin-4 (human) (UniProt O14493); assay: FACS on Claudin-4-CHO-K1 cells, MFI relative to the isotype control
Sequence of human Claudin-4 (human) (O14493 whole entry): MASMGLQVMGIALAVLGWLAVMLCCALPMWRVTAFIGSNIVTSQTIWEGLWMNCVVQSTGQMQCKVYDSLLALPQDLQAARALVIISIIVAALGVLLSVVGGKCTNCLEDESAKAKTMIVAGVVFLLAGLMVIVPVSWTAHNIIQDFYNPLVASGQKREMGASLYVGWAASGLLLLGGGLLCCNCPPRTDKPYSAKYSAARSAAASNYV

human Claudin-3 (human) [3] = biological target: human Claudin-3 (human) (UniProt O15551); assay: FACS on MCF7 cells, which endogenously express Claudin-3 and Claudin-4; MFI relative to the isotype control
Sequence of human Claudin-3 (human) (O15551 whole entry): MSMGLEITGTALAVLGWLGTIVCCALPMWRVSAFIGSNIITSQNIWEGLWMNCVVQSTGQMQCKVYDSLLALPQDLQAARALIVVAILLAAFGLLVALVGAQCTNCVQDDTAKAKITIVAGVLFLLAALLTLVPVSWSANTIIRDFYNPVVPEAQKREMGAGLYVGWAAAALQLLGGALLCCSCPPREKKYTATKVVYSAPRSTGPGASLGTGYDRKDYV

human Claudin-4 (human) [4] = biological target: human Claudin-4 (human) (UniProt O14493); assay: as above
human Claudin-6 (human) [5] = biological target: human Claudin-6 (human) (UniProt P56747); assay: FACS dose response, Claudin-6-HEK293 cells
human Claudin-6 (human) [6] = biological target: human Claudin-6 (human) (UniProt P56747); assay: cell-based or functional assay
human Claudin-6 (human) [7] = biological target: human Claudin-6 (human) (UniProt P56747); assay: FACS dose response, Claudin-6-CHO cells
human Claudin-6 (human) [8] = biological target: human Claudin-6 (human) (UniProt P56747); assay: FACS, OV90 cells (endogenous CLDN6)
human Claudin-9 (human) [9] = biological target: human Claudin-9 (human) (UniProt O95484); assay: FACS dose response, Claudin-9-HEK293 cells
Sequence of human Claudin-9 (human) (O95484 whole entry): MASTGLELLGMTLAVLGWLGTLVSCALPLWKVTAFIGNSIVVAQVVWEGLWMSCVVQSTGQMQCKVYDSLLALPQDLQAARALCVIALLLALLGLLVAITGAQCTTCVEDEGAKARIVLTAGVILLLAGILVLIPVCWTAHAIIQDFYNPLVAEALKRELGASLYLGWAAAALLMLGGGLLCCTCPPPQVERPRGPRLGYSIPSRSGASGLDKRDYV

human Claudin-6 (human) [10] = biological target: human Claudin-6 (human) (UniProt P56747); assay: FACS, NEC8 cells (endogenous CLDN6)
human Claudin-3 (human) [11] = biological target: human Claudin-3 (human) (UniProt O15551); assay: FACS on Claudin-3-CHO-K1 cells, MFI relative to the isotype control
human Claudin-9 (human) [12] = biological target: human Claudin-9 (human) (UniProt O95484); assay: FACS, Claudin-9-HEK293 cells, 5 µg/ml
human Claudin-4 (human) [13] = biological target: human Claudin-4 (human) (UniProt O14493); assay: FACS, Claudin-4-CHO-K1 cells

Binder | fold MFI over isotype control (human Claudin-6 (human) [1]) [fold] | fold MFI over isotype control (human Claudin-4 (human) [2]) [x] | fold MFI over isotype control (human Claudin-3 (human) [3]) [x] | fold MFI over isotype control (human Claudin-4 (human) [4]) [x] | EC50 (human Claudin-6 (human) [5]) [nM] | endocytosis-mediated cytotoxicity (anti-hFc Fab-MMAF, CellTiter-Glo) on NEC8 cells, EC50 mean (St. Dev. 0.03) (human Claudin-6 (human) [6]) [nM] | endocytosis-mediated cytotoxicity on OV90 cells, EC50 (human Claudin-6 (human) [6]) [nM] | EC50 (human Claudin-6 (human) [7]) [nM] | fold MFI over isotype control (human Claudin-6 (human) [8]) [fold] | EC50 (human Claudin-9 (human) [9]) [nM] | fold MFI over isotype control (human Claudin-6 (human) [10]) [fold] | fold MFI over isotype control (human Claudin-3 (human) [11]) [x] | fold MFI over isotype control (human Claudin-9 (human) [12]) [fold] | endocytosis-mediated cytotoxicity (anti-hFc Fab-MMAF, CellTiter-Glo) on NEC8 cells, EC50 mean (St. Dev. 0.04) (human Claudin-6 (human) [6]) [nM] | fold MFI over isotype control (human Claudin-4 (human) [13]) [fold]
B1 | 25 | 1.2 | 0.7 | 0.7 | 1.51 | 0.05 | 1.96 | 1.52 | 20 | 16.4 | 19 | 1.1 | 15 | – | –
B2 | 25 | – | 1 | 1 | 8.73 | – | 1.71 | 24.5 | 15 | 7.57 | 20 | 1.6 | 32 | 0.14 | 4.5
